Source: patent CN1997751A (AGENSYS INC, dated 2007)

Molecular target: T1, PSCA (prostate stem cell antigen), human, PSCA v.1 (human, UniProt O43653 12-83)
T1 construct: whole, on cells; also called PSCA变体1; 人PSCA
T1 sequence (looked up): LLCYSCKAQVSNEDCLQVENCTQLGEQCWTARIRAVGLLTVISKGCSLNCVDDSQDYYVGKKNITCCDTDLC
Assay: FACS titration on SW780 cells, sigmoidal dose-response fit (Graphpad Prism)

B1: Ha1-5.99 (antibody, IgG2, V domains shown)
VH: QVHLQQWGAGLLKPSETLSLTCAVYGGSFSGYYWSWIRQPPGKGLEWIGEINHSGSTSYKPSLKSRVTVSVDTSKNQFSLKLSYVTAADTAVYYCARDRGDYGDFLFDYWGQGTLVTVSS
VL: SPGERATLSCRASQSIGSTYLAWYQQKPGQAPRLLIYGASSRATGIPERFSGSGSGTDFTLTISGLEPEDFAVFYCQQCGSSPPTFGQGTKVEIKR
notes: ATCC PTA-6703; also called Ha1-5.99.1; HA1-5.99.1
  Kd: 0.28 nM

B2: Ha1-1.16 (antibody, V domains shown)
VH: QVQLQQSGPGLVKPSQTLSLTCAISGDSVSSNSAAWNWIRQSPSRGLEWLGRTYYRSKWYNGYAVSVKSRMTINPDTSKNQFSLQLNSVTPEDTAVYYCARERLGELYGMDVWGQGTTVTVSS
VL: QLTQSPDSLAVSLGERATINCKSSQNILYRSSKKNHLVWYQQKPGQPPKLLIYWASTRESGVPARFSGSGSGTDFTLTISTLQAEDVAVYYCQQYYSTPPTFGQGTRLEIKR
notes: ATCC PTA-6698; also called Ha1-1.16.1
  Kd: 6.91 nM

B3: Ha1-4.117 (antibody, V domains shown)
VH: QVQLQESGPGLVKPSQTLSLTCTVSGGSISSGGYYWIWIRQHPGKGLEWIGYIYYNGNTYYNPSLKSRVTMSVDTSKNQFSLKLSSVTAADTAVYYCARDGITMIRGYYYGMDVWGQGTTVTVSS
VL: QLTQSPSSVSASVGDRVTITCRASRGISSWLAWYQQKPGKAPKLLIYTASSLQSGVPSRFSGSGSGTDFTLTISSLQPEDFATYYCQQAYSFPRTFGQGTKVEIKR
  Kd: 0.32 nM

B4: Ha1-4.37 (antibody, V domains shown)
VH: PGALQESGPGLVRPSQTLSLTCTVSGGSISSGGTYYWIWIRQHPGKGLEWIGYIYYSGSTYYNPSLKSRVTISVDTSKNQFSLKLSSVTAADTAVYYCARDGITMVRGISGGMDVWGQGTTVTVSS
VL: ASVGDRVTITCRASQSISSHLNWYQQKPGKAPKLLIYAASSLQSGVPSRFSGSGSGTDFTLSISSLQPEDFATYFCQQSYSIPRTFGQGTKVEITR
notes: ATCC PTA-6702
  Kd: 0.23 nM
